# Read-outs that look alike come from different tables or passages of the source.
# Legend:
# [1] = Ex vivo biodistribution of 86Y-labeled variants in AR42J tumor-bearing mice; settings: athymic nude, mouse, iv, 1 ug, total radioactivity, mean; for tissue uptake at 1 h: 1 h post-injection; for tissue uptake at 4 h: 4 h post-injection; for tissue uptake at 24 h: 24 h post-injection
# Experimental: To independently confirm these observations, ex vivo biodistribution studies were conducted using the same ^86Y-labeled compounds at matched timepoints (Fig. S16; Table S3). […]
# For studies involving three variants (DOTA -TATE, DOTA-MVK(ε)-TATE, and DOTA-β-Gal-TATE), AR42J cells (5 × 10^6 cells per mouse) were subcutaneously inoculated into the right shoulder of the mice. Tumors were allowed to grow for 3 weeks, reaching a volume of 100 –200 mm³ before being used in subsequent experiments. For biodistribution or PET imaging studies, mice bearing subcutaneous AR42J tumors were administered 1.4 – 1.8 MBq (1 μg) of 111In-labeled DOTA-TATE variants or 2.7 – 4.9 MBq (1 μg) of 86Y-labeled DOTA-TATE variants via tail vein injection. Biodistribution studies with 111In-labeled DOTA -TATE variants were performed 1 hour post -injection (n = 3 per cohort), while studies with 86Y-labeled DOTA-TATE variants were conducted at 1, 4, and 24 hours post -injection (n = 3 per cohort). Mice were euthanized by CO2 asphyxiation, and 10 tissues, including tumors, were collected. All samples were weighed and counted on a gamma counter (2480 Wizard 3, Perkin Elmer Inc., Waltham, MA, USA). Results are presented as percentage of injected activity per gram (%IA/g) and mean values ± standard deviations. […]
# [2] = PET/CT quantification of 86Y-labeled variants in AR42J xenograft mice; format: in vivo; settings: athymic nude, mouse, in vivo, iv, total radioactivity, 86Y-labeled, PET/CT, AR42J xenograft mice, mean ± SD, n = 3; for SUV at 1 h: 1 h post-injection; for SUV at 4 h: 4 h post-injection; for SUV at 24 h: 24 h post-injection
# Experimental: For studies involving three variants (DOTA -TATE, DOTA-MVK(ε)-TATE, and DOTA-β-Gal-TATE), AR42J cells (5 × 10^6 cells per mouse) were subcutaneously inoculated into the right shoulder of the mice. Tumors were allowed to grow for 3 weeks, reaching a volume of 100 –200 mm³ before being used in subsequent experiments. For biodistribution or PET imaging studies, mice bearing subcutaneous AR42J tumors were administered 1.4 – 1.8 MBq (1 μg) of 111In-labeled DOTA-TATE variants or 2.7 – 4.9 MBq (1 μg) of 86Y-labeled DOTA-TATE variants via […]
# tail vein injection. […]
# PET imaging to assess the uptake of three 86Y-labeled DOTA-TATE variants (2.7 – 4.9 MBq, 1 μg) in the kidney and tumor was performed at 1, 4, and 24 hours post-injection (n = 3 per cohort) in mice bearing AR42J tumors using the MRS*PET/CT 120 scanner (MR Solutions, Guildford, UK). PET/CT data acquisition was managed using Preclinical Scan software (version 4.2.4.0, MR Solutions). Mice were anesthetized with 2% isoflurane, and static PET sc ans were acquired over 10 min. CT scans were obtained for attenuation correction and anatomical co-registration.
# PET data were reconstructed using three-dimensional ordered-subsets expectation maximization, and were subsequently normalized, decay - and dead-time–corrected prior to analysis. PET/CT images were analyzed using MIM software (version 7.2.7, MIM Software Inc., Beachwood, OH, USA), and the quantitative evaluation of the maximum standardized uptake (SUVmax) and the average standardized uptake values (SUVmean) in the kidney and tumor were also performed. […]
# [3] = Urine metabolite analysis by radio-HPLC; format: in vivo; settings: normal non-tumor-bearing athymic nu/nu mice, i.v. 13–15 MBq in 200 μL PBS (4 μg), urine 1 h post-injection, n = 3
# Experimental: To elucidate the role of linker cleavage in reducing renal retention, we performed metabolite analysis of ^86Y-labeled DOTA-TATE derivatives in normal, non-tumor-bearing athymic nu/nu mice. […] These samples were analyzed by radio-HPLC alongside synthetic standards corresponding to the expected cleavage products: ^86Y-DOTA-G-M-OH and ^86Y-DOTA-NHMe (Fig. 4A).
# [4] = blood, ex vivo, n = 3, read-out: Blood uptake
# [5] = femur, ex vivo, n = 3, read-out: Femur uptake
# [6] = heart, ex vivo, n = 3, read-out: Heart uptake
# [7] = intestine, ex vivo, n = 3, read-out: Intestine uptake
# [8] = ex vivo, n = 3, read-out: Tumor uptake
# [9] = kidney, ex vivo, n = 3, read-out: Kidney uptake
# [10] = liver, ex vivo, n = 3, read-out: Liver uptake
# [11] = lung, ex vivo, n = 3, read-out: Lung uptake
# [12] = muscle, ex vivo, n = 3, read-out: Muscle uptake
# [13] = spleen, ex vivo, n = 3, read-out: Spleen uptake
smiles,measurement,setting,value
"C[C@@H](O)[C@H](NC(=O)[C@@H]1CSSC[C@H](NC(=O)[C@@H](Cc2ccccc2)NC(=O)CCCC(=O)Nc2cc(COC(=O)N(C)CCNC(=O)CN3CCN(CC(=O)O)CCN(CC(=O)O)CCN(CC(=O)O)CC3)ccc2O[C@@H]2O[C@H](CO)[C@H](O)[C@H](O)[C@H]2O)C(=O)N[C@@H](Cc2ccc(O)cc2)C(=O)N[C@H](Cc2c[nH]c3ccccc23)C(=O)N[C@@H](CCCCN)C(=O)N[C@@H]([C@@H](C)O)C(=O)N1)C(=O)O [^86Y-DOTA-β-Gal-TATE, metal not drawn]",tissue uptake at 1 h,"[1]; blood, i.v. 1 μg (2.7–4.9 MBq), ex vivo gamma counting, n = 3, read-out: Blood uptake",0.32 %ID/g
same,tissue uptake at 4 h,[1]; [4],0.23 %ID/g
same,tissue uptake at 24 h,[1]; [4],0.02 %ID/g
same,tissue uptake at 1 h,[1]; [5],0.97 %ID/g
same,tissue uptake at 4 h,[1]; [5],0.96 %ID/g
same,tissue uptake at 24 h,[1]; [5],1.01 %ID/g
same,tissue uptake at 1 h,[1]; [6],0.33 %ID/g
same,tissue uptake at 4 h,[1]; [6],0.26 %ID/g
same,tissue uptake at 24 h,[1]; [6],0.11 %ID/g
same,tissue uptake at 1 h,[1]; [7],0.49 %ID/g
same,tissue uptake at 4 h,[1]; [7],0.33 %ID/g
same,tissue uptake at 24 h,[1]; [7],0.1 %ID/g
same,tissue uptake at 1 h,[1]; [8],9.71 %ID/g
same,tissue uptake at 4 h,[1]; [8],9.16 %ID/g
same,tissue uptake at 24 h,[1]; [8],9.03 %ID/g
same,tissue uptake at 1 h,[1]; [9],3.94 %ID/g
same,tissue uptake at 4 h,[1]; [9],3.29 %ID/g
same,tissue uptake at 24 h,[1]; [9],0.76 %ID/g
same,tissue uptake at 1 h,[1]; [10],0.4 %ID/g
same,tissue uptake at 4 h,[1]; [10],0.35 %ID/g
same,tissue uptake at 24 h,[1]; [10],0.27 %ID/g
same,tissue uptake at 1 h,[1]; [11],0.72 %ID/g
same,tissue uptake at 4 h,[1]; [11],0.58 %ID/g
same,tissue uptake at 24 h,[1]; [11],0.15 %ID/g
same,tissue uptake at 1 h,[1]; [12],0.48 %ID/g
same,tissue uptake at 4 h,[1]; [12],0.25 %ID/g
same,tissue uptake at 24 h,[1]; [12],0.09 %ID/g
same,tissue uptake at 1 h,[1]; [13],0.32 %ID/g
same,tissue uptake at 4 h,[1]; [13],0.5 %ID/g
same,tissue uptake at 24 h,[1]; [13],0.12 %ID/g
same,SUV at 1 h,"[2]; 2.7–4.9 MBq (1 μg), read-out: Kidney SUVmax",0.54 ± 0.05 SUV
same,SUV at 1 h,[2]; read-out: Tumor SUVmax,1.96 ± 0.26 SUV
same,SUV at 4 h,[2]; read-out: Kidney SUVmax,0.4 ± 0.02 SUV
same,SUV at 4 h,[2]; read-out: Tumor SUVmax,1.63 ± 0.09 SUV
same,SUV at 24 h,[2]; read-out: Kidney SUVmax,0.14 ± 0.01 SUV
same,SUV at 24 h,[2]; read-out: Tumor SUVmax,1.86 ± 0.25 SUV
same,Share of total urinary radioactivity corresponding to the cleaved metabolite (86Y-DOTA-G-M-OH or 86Y-DOTA-NHMe),[3],47.4%

# From article doi:10.1101/2025.09.11.675134, “Biodistribution-Driven Discovery Identifies a Glycosidase-Cleavable Linker to Reprogram Radiotheranostics” (bioRxiv, 2025)
